In article PMC2896269:
Values joined by “and” are separate entries in the source; they are usually repeats but may differ in a detail not shown here. Equal values may be shown once.

Tests used:
LRRTM2 = LRRTM2 (UniProt O43300); settings: cited from earlier work
HA-LRRTM2 = HA-LRRTM2 (UniProt Q8BGA3); assay: immunostaining of cells or tissue
HA-LRRTM2, sequence (Q8BGA3 34-515): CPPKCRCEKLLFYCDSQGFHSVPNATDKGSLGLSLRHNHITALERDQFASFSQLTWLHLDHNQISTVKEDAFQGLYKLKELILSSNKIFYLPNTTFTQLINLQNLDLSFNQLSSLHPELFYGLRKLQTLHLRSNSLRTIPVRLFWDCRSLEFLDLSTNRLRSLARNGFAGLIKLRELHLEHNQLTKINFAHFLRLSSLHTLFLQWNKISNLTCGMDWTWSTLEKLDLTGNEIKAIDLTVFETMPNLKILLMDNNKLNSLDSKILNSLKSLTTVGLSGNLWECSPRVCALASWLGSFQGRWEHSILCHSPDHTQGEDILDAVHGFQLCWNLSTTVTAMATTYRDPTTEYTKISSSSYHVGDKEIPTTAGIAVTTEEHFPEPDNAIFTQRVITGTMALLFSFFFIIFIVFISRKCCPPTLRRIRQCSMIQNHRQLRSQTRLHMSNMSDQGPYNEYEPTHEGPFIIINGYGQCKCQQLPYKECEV

LRRTM2, sequence (O43300 34-422): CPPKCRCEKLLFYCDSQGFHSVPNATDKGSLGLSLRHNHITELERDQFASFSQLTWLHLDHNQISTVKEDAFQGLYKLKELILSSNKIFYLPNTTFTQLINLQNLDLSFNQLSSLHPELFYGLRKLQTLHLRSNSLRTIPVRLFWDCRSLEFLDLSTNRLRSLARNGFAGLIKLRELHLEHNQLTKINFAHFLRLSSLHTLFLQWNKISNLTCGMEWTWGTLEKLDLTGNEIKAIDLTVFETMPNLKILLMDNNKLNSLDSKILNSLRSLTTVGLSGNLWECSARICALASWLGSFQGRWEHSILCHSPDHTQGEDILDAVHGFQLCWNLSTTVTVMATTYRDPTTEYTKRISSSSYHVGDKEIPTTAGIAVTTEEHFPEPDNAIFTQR
Neurexin-1beta(-S4), sequence (P58400 91-289): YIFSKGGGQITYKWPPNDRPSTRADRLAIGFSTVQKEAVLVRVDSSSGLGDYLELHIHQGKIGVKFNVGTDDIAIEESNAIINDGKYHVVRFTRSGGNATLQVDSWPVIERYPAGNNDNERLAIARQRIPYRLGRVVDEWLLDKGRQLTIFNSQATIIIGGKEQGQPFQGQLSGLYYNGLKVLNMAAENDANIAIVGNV

Substance | Kd (LRRTM2) | Kd (HA-LRRTM2)
Neurexin-1beta(-S4) (from UniProt P58400) | 7 nM and 5.8 nM | –
Nrx1β(−S4)-Fc (Fc fusion) | – | 19.9 nM
